Measurements taken from paper PMC13462943, “De novo EHMT2 variants cause an autosomal dominant EHMT2-related Kleefstra syndrome via loss of G9a methyltransferase activity” (Nature Communications, 2026).

Target: the molecule itself
Assay: native MS; dimerization of apo proteins: 5 µM protein in 150 mM ammonium acetate pH 7.5, 0.5 mM DTT; monomer-dimer distribution quantified

| Protein | stoichiometry N |
| --- | --- |
| G9a methyltransferase domain (aa residues 913-1193), Del 1076-9 (domain or fragment, human, UniProt Q96KQ7-1 913-1193, looked up, G9a (EHMT2), human, methyltransferase (SET) domain, aa residues 913-1193, patient variant; numbered on NP_006700.3; also called p.Glu1076_Val1079del; c.3225_3236del; source: E. coli BL21-CodonPlus (DE3)-RIPL, pET28a, purified (IMAC, TEV cleavage, SEC, second IMAC); not shown: His6, N-terminal, cleaved) NRAIRTEKIICRDVARGYENVPIPCVNGVDGEPCPEDYKYISENCETSTMNIDRNITHLQHCTCVDDCSSSNCLCGQLSIRCWYDKDGRLLQEFNKIEPPLIFECNQACSCWRNCKNRVVQSGIKVRLQLYRTAKMGWGVRALQTIPQGTFICEYVGELISDAREDDSYLFDLDNKDGEVYCIDARYYGNISRFINHLCDPNIIPVRVFMLHQDLRFPRIAFFSSRDIRTGEELGFDYGDRFWDIKSKYFTCQCGSEKCKHSAEAIALEQSRLARLD | 2 |
| G9a methyltransferase domain (aa residues 913-1193), K1162R (domain or fragment, human, UniProt Q96KQ7-1 913-1193, looked up, G9a (EHMT2), human, methyltransferase (SET) domain, aa residues 913-1193, patient variant; numbered on NP_006700.3; De novo patient variant made by site-directed mutagenesis; also called p.Lys1162Arg; c.3485A>G; source: E. coli BL21-CodonPlus (DE3)-RIPL, pET28a, purified (IMAC, TEV cleavage, SEC, second IMAC); not shown: His6, N-terminal, cleaved) NRAIRTEKIICRDVARGYENVPIPCVNGVDGEPCPEDYKYISENCETSTMNIDRNITHLQHCTCVDDCSSSNCLCGQLSIRCWYDKDGRLLQEFNKIEPPLIFECNQACSCWRNCKNRVVQSGIKVRLQLYRTAKMGWGVRALQTIPQGTFICEYVGELISDAEADVREDDSYLFDLDNKDGEVYCIDARYYGNISRFINHLCDPNIIPVRVFMLHQDLRFPRIAFFSSRDIRTGEELGFDYGDRFWDIRSKYFTCQCGSEKCKHSAEAIALEQSRLARLD | 2 |
| G9a methyltransferase domain (aa residues 913-1193), A1077S (domain or fragment, human, UniProt Q96KQ7-1 913-1193, looked up, G9a (EHMT2), human, methyltransferase (SET) domain, aa residues 913-1193, patient variant; numbered on NP_006700.3; De novo patient variant made by site-directed mutagenesis; also called p.Ala1077Ser; c.3229G>T; source: E. coli BL21-CodonPlus (DE3)-RIPL, pET28a, purified (IMAC, TEV cleavage, SEC, second IMAC); not shown: His6, N-terminal, cleaved) NRAIRTEKIICRDVARGYENVPIPCVNGVDGEPCPEDYKYISENCETSTMNIDRNITHLQHCTCVDDCSSSNCLCGQLSIRCWYDKDGRLLQEFNKIEPPLIFECNQACSCWRNCKNRVVQSGIKVRLQLYRTAKMGWGVRALQTIPQGTFICEYVGELISDAESDVREDDSYLFDLDNKDGEVYCIDARYYGNISRFINHLCDPNIIPVRVFMLHQDLRFPRIAFFSSRDIRTGEELGFDYGDRFWDIKSKYFTCQCGSEKCKHSAEAIALEQSRLARLD | 2 |
| G9a methyltransferase domain (aa residues 913-1193), N1112S (domain or fragment, human, UniProt Q96KQ7-1 913-1193, looked up, G9a (EHMT2), human, methyltransferase (SET) domain, aa residues 913-1193, patient variant; numbered on NP_006700.3; De novo patient variant made by site-directed mutagenesis; also called p.Asn1112Ser; c.3335A>G; source: E. coli BL21-CodonPlus (DE3)-RIPL, pET28a, purified (IMAC, TEV cleavage, SEC, second IMAC); not shown: His6, N-terminal, cleaved) NRAIRTEKIICRDVARGYENVPIPCVNGVDGEPCPEDYKYISENCETSTMNIDRNITHLQHCTCVDDCSSSNCLCGQLSIRCWYDKDGRLLQEFNKIEPPLIFECNQACSCWRNCKNRVVQSGIKVRLQLYRTAKMGWGVRALQTIPQGTFICEYVGELISDAEADVREDDSYLFDLDNKDGEVYCIDARYYGNISRFISHLCDPNIIPVRVFMLHQDLRFPRIAFFSSRDIRTGEELGFDYGDRFWDIKSKYFTCQCGSEKCKHSAEAIALEQSRLARLD | 2 |
| G9a methyltransferase domain (aa residues 913-1193), F1158L (domain or fragment, human, UniProt Q96KQ7-1 913-1193, looked up, G9a (EHMT2), human, methyltransferase (SET) domain, aa residues 913-1193, patient variant; numbered on NP_006700.3; De novo patient variant made by site-directed mutagenesis; also called p.Phe1158Leu; c.3472T>C; source: E. coli BL21-CodonPlus (DE3)-RIPL, pET28a, purified (IMAC, TEV cleavage, SEC, second IMAC); not shown: His6, N-terminal, cleaved) NRAIRTEKIICRDVARGYENVPIPCVNGVDGEPCPEDYKYISENCETSTMNIDRNITHLQHCTCVDDCSSSNCLCGQLSIRCWYDKDGRLLQEFNKIEPPLIFECNQACSCWRNCKNRVVQSGIKVRLQLYRTAKMGWGVRALQTIPQGTFICEYVGELISDAEADVREDDSYLFDLDNKDGEVYCIDARYYGNISRFINHLCDPNIIPVRVFMLHQDLRFPRIAFFSSRDIRTGEELGFDYGDRLWDIKSKYFTCQCGSEKCKHSAEAIALEQSRLARLD | 2 |
| G9a methyltransferase domain (aa residues 913-1193), A1077T (domain or fragment, human, UniProt Q96KQ7-1 913-1193, looked up, G9a (EHMT2), human, methyltransferase (SET) domain, aa residues 913-1193, patient variant; numbered on NP_006700.3; De novo patient variant made by site-directed mutagenesis; also called p.Ala1077Thr; c.3229G>A; source: E. coli BL21-CodonPlus (DE3)-RIPL, pET28a, purified (IMAC, TEV cleavage, SEC, second IMAC); not shown: His6, N-terminal, cleaved) NRAIRTEKIICRDVARGYENVPIPCVNGVDGEPCPEDYKYISENCETSTMNIDRNITHLQHCTCVDDCSSSNCLCGQLSIRCWYDKDGRLLQEFNKIEPPLIFECNQACSCWRNCKNRVVQSGIKVRLQLYRTAKMGWGVRALQTIPQGTFICEYVGELISDAETDVREDDSYLFDLDNKDGEVYCIDARYYGNISRFINHLCDPNIIPVRVFMLHQDLRFPRIAFFSSRDIRTGEELGFDYGDRFWDIKSKYFTCQCGSEKCKHSAEAIALEQSRLARLD | 2 |
| G9a methyltransferase domain (aa residues 913-1193), wild type (domain or fragment, human, UniProt Q96KQ7-1 913-1193, looked up, G9a (EHMT2), human, methyltransferase (SET) domain, aa residues 913-1193; variants numbered on NP_006700.3; His tag removed by TEV protease; also called EHMT2; euchromatin histone lysine methyltransferase 2; source: E. coli BL21-CodonPlus (DE3)-RIPL, pET28a, purified (IMAC, TEV cleavage, SEC, second IMAC); not shown: His6, N-terminal, cleaved) NRAIRTEKIICRDVARGYENVPIPCVNGVDGEPCPEDYKYISENCETSTMNIDRNITHLQHCTCVDDCSSSNCLCGQLSIRCWYDKDGRLLQEFNKIEPPLIFECNQACSCWRNCKNRVVQSGIKVRLQLYRTAKMGWGVRALQTIPQGTFICEYVGELISDAEADVREDDSYLFDLDNKDGEVYCIDARYYGNISRFINHLCDPNIIPVRVFMLHQDLRFPRIAFFSSRDIRTGEELGFDYGDRFWDIKSKYFTCQCGSEKCKHSAEAIALEQSRLARLD | 2 |
| G9a methyltransferase domain (aa residues 913-1193), Del 1163-4 (domain or fragment, human, UniProt Q96KQ7-1 913-1193, looked up, G9a (EHMT2), human, methyltransferase (SET) domain, aa residues 913-1193, patient variant; numbered on NP_006700.3; De novo patient variant made by site-directed mutagenesis; also called p.Ser1163_Lys1164del; c.3487_3492del; source: E. coli BL21-CodonPlus (DE3)-RIPL, pET28a, purified (IMAC, TEV cleavage, SEC, second IMAC); not shown: His6, N-terminal, cleaved) NRAIRTEKIICRDVARGYENVPIPCVNGVDGEPCPEDYKYISENCETSTMNIDRNITHLQHCTCVDDCSSSNCLCGQLSIRCWYDKDGRLLQEFNKIEPPLIFECNQACSCWRNCKNRVVQSGIKVRLQLYRTAKMGWGVRALQTIPQGTFICEYVGELISDAEADVREDDSYLFDLDNKDGEVYCIDARYYGNISRFINHLCDPNIIPVRVFMLHQDLRFPRIAFFSSRDIRTGEELGFDYGDRFWDIKYFTCQCGSEKCKHSAEAIALEQSRLARLD | 2 |
| GLP methyltransferase domain (aa 1001-1266), wild type (domain or fragment, human, UniProt Q9H9B1-1 1001-1266, looked up, GLP (EHMT1), human, methyltransferase (SET) domain, aa 1001-1266; NM_024757.5 is printed for the EHMT1 variant of the Kleefstra syndrome 1 patient, not expressly for this construct; also called EHMT1; euchromatin histone lysine methyltransferase 1; source: E. coli BL21-CodonPlus (DE3)-RIPL, pET28a, purified (IMAC, TEV cleavage, SEC, second IMAC); not shown: His6, N-terminal, cleaved) DRPSPVERIVSRDIARGYERIPIPCVNAVDSEPCPSNYKYVSQNCVTSPMNIDRNITHLQYCVCIDDCSSSNCMCGQLSMRCWYDKDGRLLPEFNMAEPPLIFECNHACSCWRNCRNRVVQNGLRARLQLYRTRDMGWGVRSLQDIPPGTFVCEYVGELISDSEADVREEDSYLFDLDNKDGEVYCIDARFYGNVSRFINHHCEPNLVPVRVFMAHQDLRFPRIAFFSTRLIEAGEQLGFDYGERFWDIKGKLFSCRCGSPKCRHS | 2 |
